The record followed here is PMC5009119, “Characterization of the Promoter Region of Biosynthetic Enzyme Genes Involved in Berberine Biosynthesis in Coptis japonica”.

For the data set, the target named is GST-CjWRKY1 (Coptis japonica, UniProt A0ZT25 1-185). The data set is described as follows: EMSA; poly(dI-dC) 0.05 ug/ul; 3 ug protein, 20 fmol probe; EMSA: 1x LightShift binding buffer, 1 mM MgCl2, 0.5 mM EDTA, 0.05 ug/ul poly(dI-dC), 20 min at 4 C; pH not stated. Conditions: protein: recombinant; tags: GST (N-terminal, pGEX-6P-1); label: biotin (sense and antisense oligonucleotides). On the technique in general: A gel shift assay detects complexes by their altered migration in electrophoresis.
Chain of GST-CjWRKY1 (A0ZT25 entry or part of it): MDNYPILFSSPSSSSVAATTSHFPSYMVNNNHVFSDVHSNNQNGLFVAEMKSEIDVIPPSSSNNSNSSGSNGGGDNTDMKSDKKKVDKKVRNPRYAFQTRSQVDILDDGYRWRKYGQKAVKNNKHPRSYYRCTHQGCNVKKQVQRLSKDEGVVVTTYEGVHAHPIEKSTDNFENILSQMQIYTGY

B1: 3x W-box probe (W2 of CYP80B2 promoter) (dsDNA)
DNA 1: CTGCTGACTAGCTGACTAGCTGACTAGATGG
DNA 2: CCATCTAGTCAGCTAGTCAGCTAGTCAGCAG
B1: the binding result is “binds”.
